# Experimental data as given in patent US20240026017A1 (Kyowa Kirin, published 2024).
# T1: human CC chemokine receptor 1 (human CCR1) (human, UniProt P32246 1-355)
# T1 construct: endogenous on THP-1 cells in the migration assays; also called hCCR1; CHO-S-hCCR1 (expressing cells)
# T1 sequence: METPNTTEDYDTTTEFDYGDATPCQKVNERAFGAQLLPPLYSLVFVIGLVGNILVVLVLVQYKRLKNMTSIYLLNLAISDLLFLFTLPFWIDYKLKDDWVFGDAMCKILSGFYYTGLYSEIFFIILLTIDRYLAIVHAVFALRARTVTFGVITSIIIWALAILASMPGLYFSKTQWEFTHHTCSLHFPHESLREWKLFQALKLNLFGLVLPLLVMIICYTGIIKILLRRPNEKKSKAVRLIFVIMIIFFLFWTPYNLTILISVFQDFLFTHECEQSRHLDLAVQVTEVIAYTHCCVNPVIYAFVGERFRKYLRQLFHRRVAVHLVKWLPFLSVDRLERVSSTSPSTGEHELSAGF
# T2: human CCR3 (human, UniProt P51677 1-355)
# T2 construct: whole, on cells; also called hCCR3; CHO-S-hCCR3 (expressing cells)
# T2 sequence (looked up): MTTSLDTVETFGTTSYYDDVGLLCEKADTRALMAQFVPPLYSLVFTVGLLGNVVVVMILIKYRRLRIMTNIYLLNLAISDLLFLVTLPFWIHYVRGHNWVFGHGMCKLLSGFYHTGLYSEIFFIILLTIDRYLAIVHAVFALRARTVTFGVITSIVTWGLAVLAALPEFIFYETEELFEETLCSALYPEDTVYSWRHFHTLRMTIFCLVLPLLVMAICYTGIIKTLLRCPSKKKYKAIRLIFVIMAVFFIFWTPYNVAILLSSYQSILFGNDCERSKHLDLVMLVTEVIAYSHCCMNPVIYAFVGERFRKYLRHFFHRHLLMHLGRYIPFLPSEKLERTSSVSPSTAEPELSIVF
# T3: NC3-mCCR1 (chimeric receptor in which positions 1 to 31 of mouse CCR1 were substituted with the corresponding … (human; mouse, UniProt P51677 1-31)
# T3 construct: expressed on CHO-S cells; End 355 from the stated total length of CCR1; also called CHO-S-NC3-mCCR1 (expressing cells)
# T3 sequence: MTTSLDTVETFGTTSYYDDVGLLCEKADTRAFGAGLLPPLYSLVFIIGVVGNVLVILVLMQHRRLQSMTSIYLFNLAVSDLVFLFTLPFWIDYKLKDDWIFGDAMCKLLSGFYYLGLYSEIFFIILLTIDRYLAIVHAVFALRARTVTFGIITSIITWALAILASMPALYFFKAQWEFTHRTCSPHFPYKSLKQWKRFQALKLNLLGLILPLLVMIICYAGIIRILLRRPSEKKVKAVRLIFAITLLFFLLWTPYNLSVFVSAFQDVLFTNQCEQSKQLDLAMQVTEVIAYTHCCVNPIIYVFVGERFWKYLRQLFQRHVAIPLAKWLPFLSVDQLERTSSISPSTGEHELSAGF
# B1: chKM5908′ antibody (antibody, V domains shown)
# VH: QVQLKQSGPGLVQPSQSLSITCTVSGFSLNNYGVHWVRQPPGKGLEWLGVIWSAGTTVYNAAFISRLSISKDDSKSQVFFKMNSLQAGDTAIYYCAKDGSRYYTAMDYWGQGTSVTVSS
# VL: DVVMTQTPLSLPVSLGDQASIFCRSSQSLVHRNGITFFHWYLQKPGQSPKLLIYKVSNRFSGVPDRFSGSGSGTDFTLKISRVAPDDLGVYFCSQGTHVPPTFGGGTKLEIK
# notes: chimeric; also called VL-substituted chimeric antibody (VH of chKM5908, VL of chKM5914)
# B2: hzKM5907 LV2bHV3a antibody (antibody, V domains shown)
# VH: EVQLLESGGGLVQPGGSLRLSCAASGFTFSRYGMSWVRQAPGKRLEWVSSISATFTYTYYTDNVKGRFTISRDNSKNTLYLQMNSLRAEDTGVYYCARQDNYAWFDSWGQGTLVTVSS
# VL: DIVMTQTPLSLPVTSGEPVSISCRSSQSIVHSNGNTFLEWYLKKPGQSPQLLIYKVSSRFSGVPDRFSGSGSGTDFTLKISRVEAEDVGVYYCFQGSHIPWTFGGGTKVEIK
# B3: KM5955 antibody (antibody, mouse IgG2a, V domains shown)
# VH: EVQLVESGGGLVKPGGSLKLSCAASGFTLRDFGMHWVRQVPEKGLEWVAYISSGRTAISYVDKVKGRFTISRDNAKNTLFLQMTSLRSEDTAMYYCARRPYSKSYAMDYWGQGTSVTVSS
# VL: DVVLTQTPLSLPVNIGDQASISCKSIKSLLNSDGFTYLDWYLQKPGQSPQLLIYLVSNRFSGVPDRFSGSGSGTDFTLKIRRVEAEDLGVYYCFQSNYLPLTFGAGTKLELK
# notes: mouse IgG2a from hybridoma
# B4: KM5915 antibody (antibody, mouse IgG2b, V domains shown)
# VH: EVQLVESGGDLVKPGGSLKLSCAASGFTFSNYGMSWVRQTPDKRLEWVASISIGSYIYYLDSVKGRFTIYRDNAKNTLFLQMRSLKSEDTAMYHCARQGNDYDWFAYWGQGTLVTVSA
# VL: DVLMTQTPLSLPVSLGDQASISCRSSQNIVHTNGNTYLEWYLQKPGQSPKLLIYKVSNRFSGVPDRFSGSGSGTDFTLKISRVEAEDLGVYYCFQGSHLPWTFGGGTKLEIK
# notes: mouse IgG2b from hybridoma
# B5: hzmAb5-06 LV5HV14 antibody (antibody, V domains shown)
# VH: QVQLQQSGPGLVKPSQTLSITCTVSGFSLNNYGVHWVRQPPGKGLEWLGVIWSAGTTVYNAAAISRLTISKDTSKNQVSFKMSSLTAADTAVYYCAKDGSRYYTAMDYWGQGTLVTVSS
# VL: DVVMTQSPLSLPVTLGEPASISCRSSQSLVHRNGITFFHWYLQKPGQSPKLLIYKISNRFSGVPDRFSGSGSGTDFTLKISRVEAEDVGVYFCSQGTHVPPTFGQGTKLEIK
# B6: hzKM5916 LV2HV0 antibody (antibody, V domains shown)
# VH: QVQLQESGGGLVKPGGSLKLSCAASGFTFSRNAMSWVRQTPDKRLEWVAYISSGSDYIYYADTVKGRFTISRDNAKNTLYLQMSSLKSEDTAMYYCARFSYGYGKNAPDYWGQGTMVTVSS
# VL: DIQMTQSPSSLSASVGDRVTITCKASQDINKYIAWYQHKPGKGPKLLIHYTSSLQPGVPSRFSGSGSGTDFSFTISSLQPEDLATYYCLQYDYTMTFGGGTKVEIK
# B7: KM5911 antibody (antibody, mouse IgG2b, V domains shown)
# VH: DVKLVESGEGLVKPGGSLKLSCAASGFTFSRNAMSWVRQTPEKRMEWVAYISSGGDYIYYADTVKGRFTVSRDNARNTLYLRMSSLKSEDTAMYYCTRFSYGYAKNALDYWGQGTSVTVSS
# VL: DIQMTQSPSSLSASLGGKVTITCKASQDIKKYIAWYQHKPGKGPRLLIHYTSSLQPGIPSRFSGSGSGRDYSFSISNLEPEDIATYYCLQYDYLMTFGGGTKLEIK
# notes: mouse IgG2b from hybridoma
# B8: KM5916 antibody (antibody, mouse IgG2b, V domains shown)
# VH: DVKLVESGEGLVKPGGSLKLSCAASGFTFSRNAMSWVRQTPEKRLEWVAYISSGSDYIYYADTVKGRFTVSRDNARNTLYLQMTSLRSEDTAMYFCTRFSYGYGKNAPDYWGQGTSVTVSS
# VL: DIQMTQSPSSLSASLGGKVTITCKASQDINKYIAWYQHKPGQGPRLLIHYTSSLQPGIPSRFSGSGSGRDYSFSISNLEPEDIATYYCLQYDYTMTFGGGTKLEIR
# notes: mouse IgG2b from hybridoma
# What was measured:
# [1] = molecular target: T1, human CC chemokine receptor 1 (human …); experiment: flow cytometry on CHO-S-hCCR1 cells, antibody 3.2 to 10,000 ng/mL, Geomean compared
# Experimental: The antigen affinity of the chKM5908′ antibody, which is a VL-substituted chimeric antibody, was measured by flow cytometry using the CHO-S-hCCR1 cells produced in Example 2. The cells were collected by centrifugation, the supernatant was removed, and the cells were suspended in PBS (Staining Medium, hereinafter, abbreviated as SM) containing 2% fetal bovine serum (FBS), 0.05% NaN₃, and 1 mM EDTA. Next, the cells were seeded in a 96-well plate so that the number of cells is 1×10⁵ per well, and the chKM5908′ antibody was added at each final concentration of 10,000, 2,000, 400, 80, 16, and 3.2 ng/mL, and the reaction was performed at 4° C. for 60 minutes. After washing the cells with SM, Goat F (ab′)₂ Anti-Human IgG PE (γ chain specific) (Southern Biotech) diluted 500-fold with SM was added and reacted at 4° C. for 60 minutes. After washing the cells with SM, the cells were resuspended in 50 μL of SM, and the fluorescence intensity was measured by the flow cytometry (FACS Canto II, BD Biosciences).
# The data was analyzed by FlowJo 7.65 (Tommy Digital Biology Co., Ltd.), and the binding strength was compared from the Geomean value at each concentration.
# [2] = molecular target: T1, human CC chemokine receptor 1 (human …); experiment: cell-based or functional assay
# [3] = molecular target: T2, human CCR3; experiment: flow cytometry on CHO-S-hCCR3 cells, hybridoma culture supernatant diluted 10-fold
# Excerpt: (§1) As test antibodies, each hybridoma culture supernatant diluted 10-fold, an existing mouse anti-human CCR1 monoclonal antibody 53504 antibody (R & D Technologies), and a mouse anti-human CCR3 monoclonal antibody 444-11 antibody (MBL) were used.
# (§2) Regarding the measurement results, the fluorescence intensity when a certain cell was stained with a certain test antibody (each hybridoma culture supernatant, 53504 antibody or 444-11 antibody) and a secondary antibody was divided by the fluorescence intensity when the cell was stained only with the secondary antibody. […] In Table 2, the results are indicated as A and B, respectively.
# [4] = molecular target: T3, NC3-mCCR1 (chimeric receptor in which …); experiment: flow cytometry on CHO-S-NC3-mCCR1 cells, hybridoma culture supernatant diluted 10-fold
# Excerpt: as §1, §2
Binder,antibody concentration showing THP-1 migration inhibitory activity [2] [µg/mL],fluorescence intensity ratio (test antibody + secondary / secondary only) [3] [fold],other results
B1,,,binding result [1]: binds
B2,≥ 0.3,,
B3,,< 10,fluorescence intensity ratio (test antibody + secondary / secondary only) [4]: < 10 fold
B4,,< 10,
B5,≥ 0.3,,
B6,≥ 0.3,,
B7,,< 10,
B8,,< 10,
